Experiments:
[1] = biological target: T1, Recombinant Human 5′-Nucleotidase/CD73 Protein, CF (R&D Systems Cat: 5795-EN) (human, UniProt P21589 27-547); experiment: ForteBio Octet RED384 (BLI), whole IgG on AHQ sensors, 100 nM antigen, 1:1 model
T1 construct: Bought protein; also called Human CD73-His; recombinant human CD73; not shown: His tag
T1 sequence (looked up): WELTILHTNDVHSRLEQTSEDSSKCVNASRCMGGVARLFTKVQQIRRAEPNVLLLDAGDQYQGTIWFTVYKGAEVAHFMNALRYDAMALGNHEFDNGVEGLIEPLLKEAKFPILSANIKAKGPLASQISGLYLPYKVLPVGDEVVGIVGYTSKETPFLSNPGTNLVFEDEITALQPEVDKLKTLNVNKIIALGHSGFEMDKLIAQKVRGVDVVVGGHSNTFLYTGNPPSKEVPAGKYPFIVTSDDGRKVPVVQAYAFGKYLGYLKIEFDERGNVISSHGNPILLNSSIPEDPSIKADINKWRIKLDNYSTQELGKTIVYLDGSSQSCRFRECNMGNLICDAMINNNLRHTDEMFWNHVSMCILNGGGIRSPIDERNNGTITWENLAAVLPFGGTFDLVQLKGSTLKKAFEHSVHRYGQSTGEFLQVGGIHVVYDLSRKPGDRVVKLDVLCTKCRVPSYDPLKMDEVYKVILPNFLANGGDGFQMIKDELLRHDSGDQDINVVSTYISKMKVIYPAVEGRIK
Procedure: (§1) Briefly, ForteBio affinity measurements were performed by loading IgGs on-line onto AHQ sensors. Sensors were equilibrated off-line in assay buffer for 30 min and then monitored on-line for 60 seconds for baseline establishment. Sensors with loaded IgGs were exposed to 100 nM antigen for 3 minutes, and afterwards were transferred to assay buffer for 3 min for off-rate measurement. All kinetics were analyzed using the 1:1 binding model. Antigens used were: [0438] Human CD73-His: Recombinant Human 5′-Nucleotidase/CD73 Protein, CF from R&D Systems Cat: 5795-EN [0439] Mouse CD73-His: Recombinant Mouse 5′-Nucleotidase/CD73 Protein, CF from R&D Systems Cat: 4488-EN [0440] Cynomolgus CD73-His: Cynomolgus CD73/NT5E Protein (His Tag) from Sino Biological Cat: 90192-C08H-50

[2] = biological target: T2, Recombinant Mouse 5′-Nucleotidase/CD73 Protein, CF (R&D Systems Cat: 4488-EN) (mouse, UniProt Q61503 29-549, limits assumed); experiment: ForteBio Octet RED384 (BLI), whole IgG on AHQ sensors, 1:1 model
T2 construct: Bought protein; also called Mouse CD73-His; recombinant mouse CD73; not shown: His tag
T2 sequence (looked up): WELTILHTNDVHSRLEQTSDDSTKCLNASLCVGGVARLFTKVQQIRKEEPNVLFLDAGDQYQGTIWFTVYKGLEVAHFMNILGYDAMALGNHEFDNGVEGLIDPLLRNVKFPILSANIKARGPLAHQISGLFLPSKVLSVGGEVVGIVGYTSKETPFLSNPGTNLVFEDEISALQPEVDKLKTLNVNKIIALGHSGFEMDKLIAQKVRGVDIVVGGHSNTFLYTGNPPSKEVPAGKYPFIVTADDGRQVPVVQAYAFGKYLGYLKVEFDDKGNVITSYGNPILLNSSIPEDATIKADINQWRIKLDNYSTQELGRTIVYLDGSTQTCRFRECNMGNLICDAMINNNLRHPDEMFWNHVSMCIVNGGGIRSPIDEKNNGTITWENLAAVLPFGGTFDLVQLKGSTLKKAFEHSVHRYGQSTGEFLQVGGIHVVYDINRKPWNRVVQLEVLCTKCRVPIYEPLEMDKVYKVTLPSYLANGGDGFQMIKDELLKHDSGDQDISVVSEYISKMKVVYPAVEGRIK
Procedure: as §1

[3] = biological target: T3, Cynomolgus CD73/NT5E Protein (His Tag) (Sino Biological Cat: 90192-C08H-50) (cynomolgus monkey, UniProt A0A2K5V5U7 27-547); experiment: ForteBio Octet RED384 (BLI), whole IgG on AHQ sensors, 100 nM antigen, 1:1 model
T3 construct: treated as one protein; also called Cynomolgus CD73-His; recombinant cynomolgus monkey CD73; not shown: His tag
T3 sequence: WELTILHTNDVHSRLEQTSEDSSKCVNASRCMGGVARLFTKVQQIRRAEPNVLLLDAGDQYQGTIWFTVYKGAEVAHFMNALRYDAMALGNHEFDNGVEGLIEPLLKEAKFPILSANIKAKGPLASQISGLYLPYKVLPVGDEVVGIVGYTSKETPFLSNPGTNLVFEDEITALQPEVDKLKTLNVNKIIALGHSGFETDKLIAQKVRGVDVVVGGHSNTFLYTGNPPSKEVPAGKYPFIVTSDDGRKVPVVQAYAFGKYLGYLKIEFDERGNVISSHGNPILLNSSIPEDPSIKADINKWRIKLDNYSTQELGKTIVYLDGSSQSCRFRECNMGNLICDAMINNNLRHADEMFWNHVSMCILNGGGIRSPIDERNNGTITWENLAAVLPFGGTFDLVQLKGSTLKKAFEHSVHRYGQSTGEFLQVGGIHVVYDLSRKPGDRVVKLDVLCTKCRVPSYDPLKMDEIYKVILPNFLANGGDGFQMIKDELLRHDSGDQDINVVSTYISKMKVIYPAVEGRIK
Procedure: as §1

[4] = biological target: T2, Recombinant Mouse 5′-Nucleotidase/CD73 …; experiment: restated binding profile (Octet)

Binder	Kd [1] [pM]	binding result [2]	Kd [3] [pM]	binding result [4]
930.C (antibody, V domains shown, also called 930 IgG1 format) VH: not shown VL: EIVLTQSPATLSVSPGERATLSCRASQSVGSNLAWYQQKPGQAPRLLIYGASTRATGIPARFSGSGSGTEFTLTISSLQSEDFAVYYCQQHNAFPYTFGGGTKVEIK	1830	no binding (tested: 100 nM antigen)	–	–
379.C (antibody, V domains shown, also called 379 IgG1 format) VH: EVQLLESGGGLVQPGGSLRLSCAASGFTFSRYAMSWVRQAPGKGLEWVSSISGTGGSTYYADSVKGRFTISRDNSKNTLYLQMNSLRAEDTAVYYCARGGLYGSGSYLSDFDLWGRGTLVTVSS VL: EIVLTQSPATLSVSPGERATLSCRASQSVGSNLAWYQQKPGQAPRLLIYGASTRATGIPARFSGSGSGTEFTLTISSLQSEDFAVYYCQQHNAFPYTFGGGTKVEIK	550	no binding (tested: 100 nM antigen)	1620	–
373.C (antibody, V domains shown) VH: EVQLLESGGGLVQPGGSLRLSCAASGFTFHRYAMSWVRQAPGKGLEWVSAISGSGMNTYYADSVKGRFTISRDNSKNTLYLQMNSLRAEDTAVYYCARGGLYGSGSYLSDFDLWGRGTLVTVSS VL: EIVLTQSPATLSVSPGERATLSCRASQSVGSNLAWYQQKPGQAPRLLIYGASTRATGIPARFSGSGSGTEFTLTISSLQSEDFAVYYCQQHNAFPYTFGGGTKVEIK	621	no binding (tested: 100 nM antigen)	914	–
377.C (antibody, V domains shown, also called 377 IgG1 format) VH: EVQLLESGGGLVQPGGSLRLSCAASGFTFKSYAMSWVRQAPGKGLEWVSAISGSGSYTYYADSVKGRFTISRDNSKNTLYLQMNSLRAEDTAVYYCARGGLYGSGSYLSDFDLWGRGTLVTVSS VL: EIVLTQSPATLSVSPGERATLSCRASQSVGSNLAWYQQKPGQAPRLLIYGASTRATGIPARFSGSGSGTEFTLTISSLQSEDFAVYYCQQHNAFPYTFGGGTKVEIK	572	no binding (tested: 100 nM antigen)	1420	–
374 (antibody, V domains shown, also called Lineage 3 child) VH: EVQLLESGGGLVQPGGSLRLSCAASGFTFSYNAMSWVRQAPGKGLEWVSSISGTGGSTYYADSVKGRFTISRDNSKNTLYLQMNSLRAEDTAVYYCARGGLYGSGSYLSDFDLWGRGTLVTVSS VL: EIVLTQSPATLSVSPGERATLSCRASQSVGSNLAWYQQKPGQAPRLLIYGASTRATGIPARFSGSGSGTEFTLTISSLQSEDFAVYYCQQHNAFPYTFGGGTKVEIK	–	–	–	no binding
373 (antibody, V domains shown, also called Lineage 3 child) VH: EVQLLESGGGLVQPGGSLRLSCAASGFTFHRYAMSWVRQAPGKGLEWVSAISGSGMNTYYADSVKGRFTISRDNSKNTLYLQMNSLRAEDTAVYYCARGGLYGSGSYLSDFDLWGRGTLVTVSS VL: EIVLTQSPATLSVSPGERATLSCRASQSVGSNLAWYQQKPGQAPRLLIYGASTRATGIPARFSGSGSGTEFTLTISSLQSEDFAVYYCQQHNAFPYTFGGGTKVEIK	–	–	–	no binding
374.C (antibody, V domains shown) VH: EVQLLESGGGLVQPGGSLRLSCAASGFTFSYNAMSWVRQAPGKGLEWVSSISGTGGSTYYADSVKGRFTISRDNSKNTLYLQMNSLRAEDTAVYYCARGGLYGSGSYLSDFDLWGRGTLVTVSS VL: EIVLTQSPATLSVSPGERATLSCRASQSVGSNLAWYQQKPGQAPRLLIYGASTRATGIPARFSGSGSGTEFTLTISSLQSEDFAVYYCQQHNAFPYTFGGGTKVEIK	358	no binding (tested: 100 nM antigen)	103	–
376.C (antibody, V domains shown, also called 376 IgG1 format) VH: EVQLLESGGGLVQPGGSLRLSCAASGFTFRSYAMSWVRQAPGKGLEWVSAITGSGGLTYYADSVKGRFTISRDNSKNTLYLQMNSLRAEDTAVYYCARGGLYGSGSYLSDFDLWGRGTLVTVSS VL: EIVLTQSPATLSVSPGERATLSCRASQSVGSNLAWYQQKPGQAPRLLIYGASTRATGIPARFSGSGSGTEFTLTISSLQSEDFAVYYCQQHNAFPYTFGGGTKVEIK	301	no binding (tested: 100 nM antigen)	–	–

— patent publication US20240141060A1 (Novartis, published 2024)
